According to US20080267971A1 (published 2008):
Residue numbers refer to the chain shown, from its start.

B1: mAb 5.35.1 (antibody, V domains shown)
VH: EVQLVESGGGVVRPGGSLRLSCTTSGFTFDDYGMSWVRQAPGKGLEWVSGINWNGGSTVYADSVKGRFTISRDSAKNSLYLQMNSLRAEDTALYHCARNKQWLWYFDLWGRGTLVTVSS
VL: EIVMTQSPATLSVSPGERATLSCRASQSVSSNLAWYQQKPGQAPRLLIYGASTRATGIPARFSGSGSGTEFTLTISSLQSEDFAVYYCEQYNNWPLTFGGGTKVEIKR
notes: Human hybridoma IgG (XenoMouse); also called x5.35
B2: mAb 5.103.1 (antibody, V domains shown)
VH: QVQLVQSGAEVKKPGASVKVSCKASGYTFTGYYLYWVPQAPGQGLEWMGWISPNSGGTNYAQKFQGRVTMTRDTSISTAYMELSRLRSDDTAVYYCARDQVIAVAGPFDYWAQGTLVTVSS
VL: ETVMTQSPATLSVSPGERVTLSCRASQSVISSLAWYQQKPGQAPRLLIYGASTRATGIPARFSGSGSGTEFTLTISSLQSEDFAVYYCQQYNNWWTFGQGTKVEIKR
notes: Human hybridoma IgG (XenoMouse); also called 5.103.3; x5.103
B3: mAb 5.88.3 (antibody, V domains shown)
VH: EVQMVESGGGLVQPGGSLRLSCAASGFTLRSYWMSWVRQAPGKGLEWVANIKEDGSEKYHVDSVKGRFTISRDNAENSLFLQMSSLRAEDTAVYYCARDMEASAGLFDYWGQGTLVTVSS
VL: EIVMTQSPATLSVSPGERAILSCRASQSISSNLAWYQQKPGQAPRLLIYGASTRATGIPARFSGSGSGTEFTLTISSLQSEDFAVYYCQQYNYWWTFGQGTKVEIKR
notes: Human hybridoma IgG (XenoMouse); also called x5.88
B4: mAb 5.40.2 (antibody, V domains shown)
VH: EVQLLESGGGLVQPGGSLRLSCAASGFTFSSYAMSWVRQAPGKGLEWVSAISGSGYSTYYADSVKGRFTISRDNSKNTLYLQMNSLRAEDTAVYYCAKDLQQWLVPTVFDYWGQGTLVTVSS
VL: B3 VL with I20T, I29V, A34V, G50D, A51S, A60V, Y93H
notes: Human hybridoma IgG (XenoMouse); also called x5.40
B5: mAb 5.39.1 (antibody, V domains shown)
VH: QVQLVQSGAEVTKPGASVKVSCKASGYTFTAYHMYWVRQAPGQGLEWMGWINPNSGGTNYAQKFQGRVTMTRDTSISTAYMELSRLRSDDSPVYYCARDQGIAAAGPFDYWGQGTLVTVSS
VL: B3 VL with E17D, I20T, I29V, L33F, A51S, N92H, I105F
notes: Human hybridoma IgG (XenoMouse); also called x5.39
B6: mAb 5.108.1 (antibody, V domains shown)
VH: QVQLVESGGGVVQPGRSLRLSCAASGFTFSSYGMHWVRQAPGKGLEWVAVIWYDGSNKYYADSVKGRFTISRDNSKNTLYLQMNSLRAEDTAMYYCARELALWGQGTLVTVSS
VL: B3 VL with I20T, I29V, N32Y, S52F, S63R, T69P, N92S, Y93H
notes: Human hybridoma IgG (XenoMouse); also called x5.108
B7: mAb 5.13.1 (antibody, V domains shown)
VH: EVQLVESGGGLVQPGGSLRLSCAASGFTFSSYWMSWVRQAPGKGLEWVANIKQDGSEKYYVDSVKGRFTISRDNAKNSLYLQMNSLRAEDTAVYYCARDPGIAVAGPFDYWGQGTLVTVSS
VL: B3 VL with I20T, I29V, Y93H
notes: Human hybridoma IgG (XenoMouse); also called x5.13
B8: mAb 5.62.1 (antibody, V domains shown)
VH: B7 VH
VL: B3 VL with I20T, I29V, S52F, Y93H, E104G
notes: Human hybridoma IgG (XenoMouse); also called x5.62

Molecular target: T1, Mouse/Human Ang-2 StuI chimeric molecule (mouse; human, UniProt O35608 19-496)
T1 construct: also called M/H Stul 310-496
T1 chain: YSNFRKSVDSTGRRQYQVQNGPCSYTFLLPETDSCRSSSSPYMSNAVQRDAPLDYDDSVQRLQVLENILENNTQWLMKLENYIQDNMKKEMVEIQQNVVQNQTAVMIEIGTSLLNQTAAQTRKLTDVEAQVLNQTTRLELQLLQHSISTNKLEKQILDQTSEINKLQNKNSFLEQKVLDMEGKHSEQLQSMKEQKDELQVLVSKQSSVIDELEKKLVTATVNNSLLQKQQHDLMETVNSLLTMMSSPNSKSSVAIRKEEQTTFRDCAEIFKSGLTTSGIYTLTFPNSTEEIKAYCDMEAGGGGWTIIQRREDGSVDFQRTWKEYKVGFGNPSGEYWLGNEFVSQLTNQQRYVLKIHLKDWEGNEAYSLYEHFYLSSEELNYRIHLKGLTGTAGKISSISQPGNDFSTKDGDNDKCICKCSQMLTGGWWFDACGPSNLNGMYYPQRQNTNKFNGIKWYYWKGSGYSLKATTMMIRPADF
Test: ELISA
B1 was tested, and the “% of binding to human Ang-2” value was 100%.
For B2, the “% of binding to human Ang-2” value was 100%.
For B3, the “% of binding to human Ang-2” value was 100%.
B4 was tested, and the “% of binding to human Ang-2” value was 100%.
B5 was tested, and the “% of binding to human Ang-2” value was 100%.
In the case of B6, the “% of binding to human Ang-2” value is reported as 100%.
With B7 the “% of binding to human Ang-2” value was 100%.
With B8 the “% of binding to human Ang-2” value was 100%.

The binders below were run against T2, human Angiopoietin-1 (human, UniProt Q15389 20-498, limits assumed) (assay: capture ELISA).
T2 construct: Bought recombinant protein (R&D Systems 293-AN-025/CF) or supernatant of transfected 293F cells; also called Ang-1; recombinant Ang-1
T2 sequence: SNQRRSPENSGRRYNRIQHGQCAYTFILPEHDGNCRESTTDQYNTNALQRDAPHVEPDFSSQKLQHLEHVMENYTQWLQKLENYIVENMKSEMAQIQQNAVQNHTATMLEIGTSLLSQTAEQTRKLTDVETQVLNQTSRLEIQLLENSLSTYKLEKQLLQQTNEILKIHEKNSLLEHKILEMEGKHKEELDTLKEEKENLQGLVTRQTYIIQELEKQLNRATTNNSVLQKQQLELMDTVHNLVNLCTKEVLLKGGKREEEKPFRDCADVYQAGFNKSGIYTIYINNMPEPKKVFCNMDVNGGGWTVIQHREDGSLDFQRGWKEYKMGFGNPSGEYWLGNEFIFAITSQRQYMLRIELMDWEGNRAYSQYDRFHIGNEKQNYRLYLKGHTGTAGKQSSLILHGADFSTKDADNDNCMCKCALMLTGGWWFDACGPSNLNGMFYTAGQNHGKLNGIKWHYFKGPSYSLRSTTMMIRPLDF
Method: The binding of the top 27 human monoclonal antibodies was detected with a HRP-conjugated goat anti-human antibody, followed by colorimetric horseradish peroxidase substrate (Enhanced K-Blue TMB substrate Neogen Corporation). The absorbance of each well of the ELISA plates was measured at 450 nm on a microplate autoreader.
B1: no binding.
B2: no binding.
B3: no binding.
B4: no binding.
B5: no binding.
B6: no binding.
B7: no binding.
B8: no binding.

These binders were tested against T3, human Angiopoietin-2 (human, UniProt O15123 19-496) (assay: Biacore, mAb captured).
T3 construct: Mostly bought recombinant protein (R&D Systems 623-AM/CF, 623-AN; biotinylated BT623) or supernatant of transfected 293F cells; also called Ang-2; rhAng-2
T3 sequence: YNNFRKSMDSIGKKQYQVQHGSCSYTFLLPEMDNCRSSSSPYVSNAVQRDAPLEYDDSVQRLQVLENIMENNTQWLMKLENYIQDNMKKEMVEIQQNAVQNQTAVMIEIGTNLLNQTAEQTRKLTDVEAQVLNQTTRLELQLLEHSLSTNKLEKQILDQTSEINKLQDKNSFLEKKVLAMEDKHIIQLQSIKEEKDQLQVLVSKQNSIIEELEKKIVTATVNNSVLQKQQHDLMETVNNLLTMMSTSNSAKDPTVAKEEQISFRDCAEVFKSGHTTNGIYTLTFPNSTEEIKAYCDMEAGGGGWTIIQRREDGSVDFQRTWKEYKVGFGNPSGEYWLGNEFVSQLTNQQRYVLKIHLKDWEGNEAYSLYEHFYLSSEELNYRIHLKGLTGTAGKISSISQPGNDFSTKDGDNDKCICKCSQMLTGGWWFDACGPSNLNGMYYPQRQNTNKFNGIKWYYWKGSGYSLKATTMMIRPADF
Method: (§1) The label-free surface plasmon resonance (SPR), or Biacore, was utilized to measure the antibody affinity to the antigen. For this purpose, a high-density goat anti-human antibody surface over a CM5 Biacore chip was prepared using routine amine coupling. All the purified mAbs were diluted to approximately 8 μg/ml in HBS-P running buffer containing 100 μg/ml BSA and 10 mg/mL carboxymethyldextran. Each mAb was captured on a separate surface using a 42-second contact time, and a 5-minute wash for stabilization of the mAb baseline.
(§2) Data were fit globally to a 1:1 interaction model to determine the binding kinetics.
B1 showed a Kd of no more than 0.029 nM and a kon of 340000 M⁻¹ s⁻¹.
B2 was tested, and the Kd was no more than 0.045 nM and the kon was 220000 M⁻¹ s⁻¹.
Binder B3 has a Kd of no more than 0.037 nM and a kon of 270000 M⁻¹ s⁻¹.
B4 gave a Kd of no more than 0.129 nM and a kon of 78000 M⁻¹ s⁻¹.
B5 gave a Kd of no more than 0.043 nM and a kon of 230000 M⁻¹ s⁻¹.
B6 gave a Kd of no more than 0.031 nM and a kon of 320000 M⁻¹ s⁻¹.
B7 gave a Kd of no more than 0.047 nM and a kon of 210000 M⁻¹ s⁻¹.
B8 gave a Kd of no more than 0.065 nM and a kon of 150000 M⁻¹ s⁻¹.

Each binder was assayed against T3, human Angiopoietin-2 (assay: Biacore; kd held constant (*)).
Method: as §1, §2
Work on B1 yielded a koff of no more than 1e-05 s⁻¹.
B2 was tested, and the koff was no more than 1e-05 s⁻¹.
Binder B3 has a koff of no more than 1e-05 s⁻¹.
Binder B4 has a koff of no more than 1e-05 s⁻¹.
With B5 the koff was no more than 1e-05 s⁻¹.
Work on B6 yielded a koff of no more than 1e-05 s⁻¹.
B7 was tested, and the koff was no more than 1e-05 s⁻¹.
B8 showed a koff of no more than 1e-05 s⁻¹.

Each binder was assayed against T4, mouse Angiopoietin-2 (mouse, UniProt O35608 19-496) (assay: ELISA, recombinant mouse Ang-2).
T4 construct: Used as conditioned medium of transfectants; also called mAng-2; mouse Ang-2
T4 sequence: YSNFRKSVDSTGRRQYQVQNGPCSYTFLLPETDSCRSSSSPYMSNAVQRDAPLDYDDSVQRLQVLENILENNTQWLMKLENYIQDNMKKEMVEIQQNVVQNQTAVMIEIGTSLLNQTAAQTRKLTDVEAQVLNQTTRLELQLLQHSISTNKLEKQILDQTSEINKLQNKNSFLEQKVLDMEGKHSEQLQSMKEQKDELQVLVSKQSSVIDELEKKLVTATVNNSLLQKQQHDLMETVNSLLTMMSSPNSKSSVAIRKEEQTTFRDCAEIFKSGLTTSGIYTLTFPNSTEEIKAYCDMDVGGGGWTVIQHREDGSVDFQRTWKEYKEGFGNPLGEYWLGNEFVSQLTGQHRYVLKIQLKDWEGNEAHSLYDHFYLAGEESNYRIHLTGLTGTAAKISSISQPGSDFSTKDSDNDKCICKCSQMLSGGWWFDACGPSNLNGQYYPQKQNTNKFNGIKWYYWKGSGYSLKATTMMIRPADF
B1: no binding.
B2: no binding.
B3: no binding.
B4: no binding.
B5: no binding.
B6: no binding.
B7: no binding.
B8: no binding.

These binders were tested against T3, human Angiopoietin-2 (assay: inhibition of rhAng-2 binding to its receptor).
For B1, the “OD650 in inhibition assay” value was 0.0663 OD650.
For B2, the “OD650 in inhibition assay” value was 0.101 OD650.
B3 was tested, and the “OD650 in inhibition assay” value was 0.0874 OD650.
B4 was tested, and the “OD650 in inhibition assay” value was 0.0691 OD650.
B5 was tested, and the “OD650 in inhibition assay” value was 0.0519 OD650.
With B6 the “OD650 in inhibition assay” value was 0.0688 OD650.
With B7 the “OD650 in inhibition assay” value was 0.0744 OD650.
In the case of B8, the “OD650 in inhibition assay” value is reported as 0.065 OD650.
